Measured values as given in patent US20190367619A1 (ARGENX, published 2019).

T1: human galectin-10-His (recombinant human galectin-10 with TEV-cleavable N-terminal His-tag) (human)
T1 construct: SEC-MALLS: dimer in solution; also called Gal10-His; humanGal10-His
T1 chain: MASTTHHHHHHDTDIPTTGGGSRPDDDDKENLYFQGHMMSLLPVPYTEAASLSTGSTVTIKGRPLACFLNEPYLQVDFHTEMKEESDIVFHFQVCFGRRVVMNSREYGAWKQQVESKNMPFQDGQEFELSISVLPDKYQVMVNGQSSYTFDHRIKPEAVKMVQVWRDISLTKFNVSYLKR

T2: TEV-cleaved wild-type recombinant human galectin-10 (soluble, in Fab complexes, or as recombinant galectin-10 … (human, UniProt Q05315 1-142))
T2 sequence: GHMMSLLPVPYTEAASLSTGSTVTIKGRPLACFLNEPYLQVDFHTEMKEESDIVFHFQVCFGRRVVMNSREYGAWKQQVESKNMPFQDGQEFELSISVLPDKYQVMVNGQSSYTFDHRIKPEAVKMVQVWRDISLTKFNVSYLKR

T3: recombinant human galectin-10, TEV-cleaved (human, UniProt Q05315 1-142)
T3 sequence: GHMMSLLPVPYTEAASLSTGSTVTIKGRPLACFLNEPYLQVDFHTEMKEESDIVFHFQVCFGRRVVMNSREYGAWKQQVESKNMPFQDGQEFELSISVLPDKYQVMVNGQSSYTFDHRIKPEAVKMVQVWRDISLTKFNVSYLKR

T4: human galectin-10-His (human)
T4 construct: The last M of the tag may be Met1 of galectin-10; also called humanGal10-His; hGal10
T4 chain: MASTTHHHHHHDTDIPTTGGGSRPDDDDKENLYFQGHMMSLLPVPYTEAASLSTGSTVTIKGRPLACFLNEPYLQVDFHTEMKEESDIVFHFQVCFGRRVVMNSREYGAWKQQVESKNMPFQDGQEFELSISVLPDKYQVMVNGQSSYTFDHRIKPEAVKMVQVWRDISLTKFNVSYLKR


What was measured:
[1] = molecular target: T1, human galectin-10-His (recombinant …); experiment: SPR Biacore T3000, scFv-hFc captured by anti-human Fc, galectin-10-His as analyte
Experimental: In order to determine the binding properties (on-rate/off-rate) of the scFv-human Fc panel, their binding capacity to galectin-10 was analyzed on Biacore T3000. For this purpose, a capture approach was set up. A CM5 Chip was coated with polyclonal anti-human Fc at 8000 RU, then a fixed concentration of the scFv-human Fc panel (1.5 μg/mL), diluted in HBS-EP pH7.4, were captured to reach a binding signal around 150 RU. Finally, a serial dilution of galectin-10-His (serial dilution, 1 over 2 from 5 μg/mL, 6 points of dilution) diluted in HBS-EP pH7.4 was injected. Raw data were analyzed via BIA evaluation software with a blank subtraction (4-3). The kd/KD and Rmax of each scFv-human Fc for galectin-10-His was determined using the Fit Kinetics simultaneous ka/kd/Binding with mass transfer/Local Rmax on BIA evaluation software.

[2] = molecular target: T2, TEV-cleaved wild-type recombinant human …; experiment: cell-based or functional assay
[3] = molecular target: T1, human galectin-10-His (recombinant …); experiment: ELISA, scFv-hFc on coated galectin-10-His (0.2 ug/mL)
Experimental: In a similar setup to that used during the initial screening, the relative binding properties of the 12 scFv-human Fc clones were analyzed by ELISA. Briefly, a Maxisorp plate was coated with galectin-10-His at 0.2 μg/mL and blocked with casein, before being incubated with a serial dilution of the scFv-human Fc fusion molecules. After several washing steps, detection of the bound scFv-human Fc was carried out with an anti-human Fc-HRP antibody. Absorbance was measured at 450 nm (reference at 620 nm) with Tecan instrument. Finally, the raw data (OD values) were plotted on GraphPad Prism 7.01. The EC50 value of each compound was calculated with a non-linear regression (log(agonist) vs. response Variable slope (four parameters)).

[4] = molecular target: T3, recombinant human galectin-10, …; experiment: cell-based or functional assay
human galectin-10-His [5] = molecular target: T4, human galectin-10-His; experiment: ELISA, galectin-10-His coated at 1 ug/mL, Fab
Experimental: The binding capacity of the lead anti-galectin-10 Fabs was tested by binding ELISA. Briefly, a Maxisorp plate was coated overnight with 1 μg/mL of human galectin-10-His. Then a serial dilution of each clone (from 4 μM, dilution 1/4, 12 points of dilutions) was incubated on coated galectin-10. After several washing steps, detection of the bound Fab was carried out with an anti-human IgG Fab specific-peroxidase. Absorbance was measured at 450 nm (reference at 620 nm) with Tecan instrument.

human galectin-10-His [6] = molecular target: T4, human galectin-10-His; experiment: ELISA, coated antigen 0.2 ug/mL
Experimental: In a similar setup to that used during the initial screening, the relative binding properties of the 11 new scFv-human Fc clones were analyzed by ELISA. Briefly, a Maxisorp plate was coated overnight with human or cynomolgus WGS or YRT isoforms of galectin-10-His at 0.2 μg/mL and blocked with PBS 1% casein, before being incubated with a serial dilution of the scFv-human Fc fusion molecules (from 100 nM, dilution 1/5, 8 points of dilutions). After several washing steps, detection of the bound scFv-human Fc was carried out with an anti-human Fc-HRP antibody (Jackson ImmunoResearch, Catalog 109-035-008). Absorbance was measured at 450 nm (reference at 620 nm) with Tecan instrument. Finally, the raw data (OD values) were plotted on GraphPad Prism 7.01. The EC50 values of each clone, calculated with a non-linear regression (log(agonist) vs. response Variable slope (four parameters)) are reported in Table 19 below. As a positive control, clone 6F05 from the previous galectin-10 antibody panel was included.

Kd [1] [nM]	koff [1] [s⁻¹]	100% Solubilization of CLC (Conc uM) [2] [µM]	Bmax (OD values) [3] [OD]	EC50 [3] [nM]	50% crystal dissolution (min), 50 uM [4] [min]	90% crystal dissolution (min), 50 uM [4] [min]	Bmax (human galectin-10-His [5]) [OD]	EC50 (human galectin-10-His [5]) [nM]	Bmax (human galectin-10-His [6]) [OD]	EC50 (human galectin-10-His [6]) [nM]	Binder
0.677	0.000259	6.86	2.89	0.05	–	–	–	–	–	–	2C07 scFv-human Fc (Fc fusion, about 100 kDa on SDS-PAGE; also called 2C07 ScFv-hFc; not shown: CH2-CH3 constant domains of human IgG1 (vector pUPEX50)) scFv: ELQLVESGGGLVQPGGSLRLSCAASGFTFSSYAMSWVRQAPGKGLEWVSNINSGGGSTGYADSVKGRFTISRDNAKNTLYLQMNSLKPEDMAVYYCAKYLRTYYPNAAFGMDYWGKGTLVTVSSGGGGSGGGGSGGGGSQAVLTQPSAVSVSLGQTARITCQGGNFGRYYASWYQQKPGQAPVLVIYRDSERPSGIPERFSGSSSGDTATLTISGAQAEDEADYYCQSGRSSDNAVFGGGTHLTGL
–	–	–	–	–	48.5	> 120	0.95	24.3	–	–	8H11 Fab (Fab, V domains shown, Fab with human CH1 (including part of the hinge region) and human lambda constant domain; also called 8H11 hFab) VH: ELQLVESGGGLVQPGGSLRLSCAASGFTFSTNYMNWVRQAPGKGLEWVSGITSGGGRTYYADSVKGRFTISRDNAKNTLYLQMNSLKPEDTALYYCARTDHAWLDAWGQGTLVTVSS VL: QAGLTQPPSVSGTLGKTVTISCAGTSSDVGYGNYVSWYQQLPGTAPKLLIYAVSTRASGIPDRFSGSKSGNTASLTISGLLSEDEADYYCASYRSSNNYVFGGGTKLTVL
–	–	–	–	–	15.1	54.1	0.65	24.4	–	–	7B07 Fab (Fab, V domains shown, Fab with human CH1 (including part of the hinge region) and human lambda constant domain; also called 7B7; 7B07 hFab) VH: QVQLVESGGGLVQPGGSLRLSCAASGFTFRSYDMSWVRQAPGKGPEWVSAIKNGGGITYYADSVKGRFTISRDNAKNTLYLQMNSLKPEDTAVYYCATTHGIGTLGFGSWGQGTQVTVSS VL: SYELTQSASVSVALTQTAKITCDGNNIGSKSAQWYQQKPGQAPALVIYADEYRPEGIPERFSGSNSGNTATLIISGAQAEDEADYYCQVWDGSAAVFGRGTHLTVL
–	–	–	–	–	49.1	> 120	0.36	89.5	–	–	10A06 Fab (Fab, V domains shown, Fab with human CH1 (including part of the hinge region) and human lambda constant domain; also called 10A06 hFab) VH: QVQLVESGGGLVQPGGSLRLSCAASGFTFGNYDMSWVRQAPGKGPEWVSDINSGGGSTYYADSVKGRFTISRDNAKNSLLLQMNSLKPEDTAVYYCATGYTGYYYWGQGTQVTVSS VL: QTVVTQEPSLSVSPGGTVTLTCGLSSGSVTSSNYPAWYQQTPGQAPRALIYSINSRHSGVPDRFSGSISGNKAALTITGAQAEDEADYYCTLYMGTGSNNVVFGGGTHLTVL
–	–	–	–	–	–	–	–	–	2.4	0.02	6F05 scFv-human Fc (Fc fusion, Positive control from the first panel; also called 6F5; not shown: CH2-CH3 constant domains of human IgG1 (pUPEX50 scFv-Fc fusion vector)) scFv: QLQLVESGGGLVQPGGSLRLSCAASGFTFSSYAMSWVRQAPGKGLEWVSAINSGGGSTSYADSVKGRFTISRDNAKNTLYLQMNSLKPEDTAVYYCATPGDRLWYYRYDYWGQGTQVTVSSGGGGSGGGGSGGGGSQAGLTQPPSVSGTLGKAVTISCAGTSSDIGYGNYVSWYQQLPGTAPKLLIYKVSRRASGVPDRFSGSKSGNTASLSISGLQSEDEADYYCASYRYRNNVVFGGGTHLTVL
1.55	0.00277	6	1.3	0.2	–	–	–	–	–	–	4H10 scFv-human Fc (Fc fusion, about 100 kDa on SDS-PAGE; also called 4H10 ScFv-hFc; not shown: CH2-CH3 constant domains of human IgG1 (vector pUPEX50)) scFv: QVQLVESGGGLVQPGGSLRLSCAASGFTFDDYAMSWVRQAPGKGLEWVSAISWNGGSTYYAESMKGRFTISRDNAKNTLYLQMNSLKSEDAAVYYCAKDLSASGSYYHTFGSWGQGTQVTVSSGGGGSGGGGSGGGGSQAGLTQPPSVAGTLGKTVTISCAGTSSDVGYGDYVSWYQHIPGTAPKLLIYKVKTRASGIPDRFSGSKSGNTASLTISGLQSGDESDYYCASYKNGGTAVFGGGTHLTVL
